Assay results reported in paper PMC8964413 (Nature chemical biology, 2022).
Numbering of substitutions follows the chain as printed. In names and notes the source's numbering stands.

B1: UBE2K^WT (enzyme)
chain: MANIAVQRIKREFKEVLKSEETSKNQIKVDLVDENFTELRGEIAGPPDTPYEGGRYQLEIKIPETYPFNPPKVRFITKIWHPNISSVTGAICLDILKDQWAAAMTLRTVLLSLQALLAAAEPDDPQDAVVANQYKQNPEMFKQTARLWAHVYAGAPVSSPEYTKKIENLCAMGFDRNAVIVALSSKSWDVETATELLLSN
B2: UBE2K^C92K,K97R,D124C,C170S (enzyme)
chain: B1 chain with C92K, K97R, D124C, C170S

Columns and labels:
[1] = target: unanchored wild-type K63-linked di-Ub (UniProt P0CG48); test: cell-based or functional assay
[2] = target: donor ubiquitin (Ub^D), from His-TEV-Ub^WT (UniProt P0CG48 1-76, in the crystal: G76 isopeptide-linked to K92 of UBE2K); test: crystal structure

Binder | k cat/K m of tri-Ub formation, K63-Ub2 as acceptor [1] [M⁻¹ min⁻¹] | binding result [2]
B1 | 25100 | 
B2 |  | binds
